Source: paper PMC9881131, “ZNF212 promotes genomic integrity through direct interaction with TRAIP” (Nucleic Acids Research, 2023)

Molecular target: T1, recombinant HA-NEIL3 (human, UniProt Q8TAT5 1-605)
T1 construct: NEIL3, human (hNEIL3), subcloned into a pET19b-derived plasmid; The methods tell 3x FLAG (N-terminus) and 10x His (C-terminus); the results call the purified protein HA-NEIL3; Which tags stood on the protein in the assay is not clear; also called hNEIL3; source: E. coli BL21 (DE3), purified (Ni-NTA, Q column, gel filtration)
T1 sequence (looked up): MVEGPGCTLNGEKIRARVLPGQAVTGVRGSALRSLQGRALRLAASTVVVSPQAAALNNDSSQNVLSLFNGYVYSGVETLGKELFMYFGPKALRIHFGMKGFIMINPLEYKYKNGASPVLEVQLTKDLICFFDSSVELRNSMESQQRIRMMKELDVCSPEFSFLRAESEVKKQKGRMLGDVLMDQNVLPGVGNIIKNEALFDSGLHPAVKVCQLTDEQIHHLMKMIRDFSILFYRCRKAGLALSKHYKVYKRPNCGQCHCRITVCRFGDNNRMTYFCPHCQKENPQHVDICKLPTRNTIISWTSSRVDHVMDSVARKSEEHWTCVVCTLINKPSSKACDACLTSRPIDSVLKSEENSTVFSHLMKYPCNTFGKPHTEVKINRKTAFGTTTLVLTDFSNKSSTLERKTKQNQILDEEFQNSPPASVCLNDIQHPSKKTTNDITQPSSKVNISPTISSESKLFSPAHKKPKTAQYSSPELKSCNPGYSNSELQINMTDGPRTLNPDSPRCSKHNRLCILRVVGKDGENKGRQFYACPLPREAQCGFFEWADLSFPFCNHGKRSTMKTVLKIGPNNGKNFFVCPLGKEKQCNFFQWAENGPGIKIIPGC
Assay: co-IP; purified recombinant Flag-ZNF212 (or ZNF212-C) and HA-NEIL3; immunoprecipitation with increasing amounts of HA-NEIL3
Conditions: both partners purified

B1: recombinant Flag-ZNF212 (natural protein)
chain: not shown
notes: ZNF212, human, 3X-Flag tagged coding region cloned in pCold TF DNA; The host strain (E. coli BL21 (DE3)) is stated for hNEIL3 only; the later purification steps are told for hNEIL3 only; also called hZNF212; source: pCold TF DNA vector, cells grown in LB broth at 15°C, purified (Ni-NTA)
binding result: binds
